Laboratory results from the supplement of paper PMC11780869.

Tested on: Bacillus subtilis
Assay: cleaved RNA product abundance (RNA/gDNA barcode ratio) relative to median wild-type variant (ratio to wild type); higher = more accumulation of the downstream cleavage product
Summary of the method: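 Reporter mRNAs based on truncated aprE or tetM carried barcoded, mutagenized RNase Y cleavage-site windows built from oligos with a 9% error rate and were integrated into the B. subtilis chromosome. Cultures grew in LB at 37°C from OD600 0.0003 to 0.3. Cleaved RNA was gel-selected, reverse transcribed and barcode-sequenced together with genomic DNA barcodes, and UMIs were collapsed. Cleaved product abundance is the per-construct ratio of RNA to gDNA barcodes, scaled to the median of constructs carrying the unmutated site.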

[1] = experiment (reporter, strain, medium): exp 2b: truncated aprE reporter, strain BJT200, cleavage site: cggR-gapA (positions -7 to +36 mutated)
[2] = experiment (reporter, strain, medium): exp 4a: truncated aprE reporter, strain BJT201 with 2% xylose (RNase J1 expressed), cleavage site: cggR-gapA (positions -7 to +36 mutated)
[3] = experiment (reporter, strain, medium): exp 8a: truncated aprE reporter, strain BJT201 with 2% xylose (RNase J1 expressed), cleavage site: glnRA (positions -5 to +31 mutated)

Row | Sequence | cleaved RNA product abundance [1] | cleaved RNA product abundance [2] | cleaved RNA product abundance [3]
1 | ACAGACGAAGGAGCCGCAAAGAAGTTATTAACGGATGAAAAATCCCTCAATATAAATATCTCTCACTTATTTAAA | 0.104 | 0.133 | 
2 | ACAGACGAAGGAGCCGCAAAGAAGTTAATAAGGGATGAAAAATCCCTCAATATAAATATCTCTCACTTATTTAAA |  | 0.293 | 
3 | CGACATGTCCCGCTTCTTTCATTAATCCGTTAGCAACTATTCTGCTATATACATTTACCTTTTAAGAGGAGGAAT |  |  | 0.838
4 | CGACATGTCCCGCTTCTTTCATTAATCCGTTAGCATCTGTTTTCCTATATACATTTACCTTTTAAGAGGAGGAAT |  |  | 0.524
5 | CGACATGTCCCGCTTCTTTCATTAATTCGTTAGCAACTGTTTTGCTATATACATTTAACTTTTAAGAGGAGGAAT |  |  | 1.68
6 | ACAGACGAAGGAGCCGCAAAGAAGTTTTTAAGGGATGAATAATCCCTCACTATAAATATCTCTCACTTATTTAAA |  | 0.267 | 
7 | CGACATGTCCCGCTTCTTTCATTAATCCGATAGCAACTGTTTTGCTATATACATTGACCTTTTAAGAGGAGGAAT |  |  | 0.721
8 | CGACATGTCCCGCTTCTTTCATTACTCCCTTAGCAACTGTTTTGCTATATACATTTACCTTTTAAGAGGAGGAAT |  |  | 0.223
9 | ACAGACGAAGGAGCCGCAAAGAAGTTATTAAGGGAGCAATAATCCCTCAATATAAATATCTCTCACTTATTTAAA |  | 0.631 | 
10 | ACAGACGAAGGAGCCGCAAAGAAGTTATTAAGAGATGAATAATCCTTCAATATAAATATCTCTCACTTATTTAAA | 0.105 | 0.211 | 
11 | CGACATGTCCCGCTTCTTTCATTAATCCGTTAACAACTGTTTTGCTATATACATTTGCATTTTAAGAGGAGGAAT |  |  | 0.202
12 | ACAGACGAAGGAGCCGCAAAGAAGATATTAAGGGATGAATGATCCCTCAATATAAATATCTCTCACTTATTTAAA |  | 0.565 | 
13 | ACAGACGAAGGAGCCGCAAAGAAATTATTAAGGGATGACTAATCCCTCAATATAAATATCTCTCACTTATTTAAA | 0.453 | 0.573 | 
14 | CGACATGTCCCGCTTCTTTCATTACTCCGTTAGCAACTGTTATGCTATATACATTTACCTTTTAAGAGGAGGAAT |  |  | 0.602
15 | CGACATGTCCCGCTTCTTTCATTAATCCGTTTGCAACTGTTTTGCTATCTACATTTACCTTTTAAGAGGAGGAAT |  |  | 0.203
16 | ACAGACGAAGGAGCCGCAAAGAAGTAATTAAGGGATGTATAATCCCTCAATATAAATATCTCTCACTTATTTAAA |  | 0.346 | 

Row | Sequence | cleaved RNA product abundance [1] | cleaved RNA product abundance [2] | cleaved RNA product abundance [3]
17 | ACAGACGAAGGAGCCGCAAAGAAGTTATTAAGGGCTGAATAATCCCTCAATATAAATAACTCTCACTTATTTAAA |  | 0.729 | 
18 | ACAGACGAAGGAGCCGCAAAGAAGTTATTAAGGGATGAATAACCACTCAATATAAATATCTCTCACTTATTTAAA | 0.0866 | 0.17 | 
19 | ACAGACGAAGGAGCCGCAAAGAATTTATTAAGGGATGAATAATCCCTTAATATAAATATCTCTCACTTATTTAAA |  | 0.448 | 
20 | ACAGACGAAGGAGCCGCAAAGAAGTTATTAAGGGATGAATAATCCCTTAATATAAATAACTCTCACTTATTTAAA |  | 0.433 | 
21 | CGACATGTCCCGCTTCTTTCATTAATCCGTTAGCAACTGTTTTATTATATACATTTACCTTTTAAGAGGAGGAAT |  |  | 0.698
22 | ACAGACGAAGGAGCCGCAAAGAAATAATTAAGGGATGAATAATCCCTCAATATAAATATCTCTCACTTATTTAAA | 0.25 | 0.381 | 
23 | ACAGACGAAGGAGCCGCAAAGAAGTAATTAAGGGATGAATAATCCCTCAATATAGATATCTCTCACTTATTTAAA |  | 0.303 | 
24 | ACAGACGAAGGAGCCGCAAAGAAGTTATTAAGGCATGAATAATCCCTCAATTTAAATATCTCTCACTTATTTAAA | 0.059 | 0.0584 | 
25 | CGACATGTCCCGCTTCTTTCATTAATCCGTTAGCTACTGTTTTGCTATATACATTTATCTTTTAAGAGGAGGAAT |  |  | 0.798
26 | CGACATGTCCCGCTTCTTTCATTAATCCGTTAGCAACTGTTTGGCAATATACATTTACCTTTTAAGAGGAGGAAT |  |  | 0.499
27 | CGACATGTCCCGCTTCTTTCATTATTCCTTTACCAACAGTTTTGCTATATACATTTACCTTTTAAGAGGAGGAAT |  |  | 0.112
28 | CGACATGTCCCGCTTCTTTCATTACTCCTTTAGCAACTGTTTTGCTATATACATTTACCTTTTAAGAGGAGGAAT |  |  | 0.376
29 | CGACATGTCCCGCTTCTTTCATTAATCCGTTAGCAACAGTTTTGCTATATACATTTAACTTTTAAGAGGAGGAAT |  |  | 0.916
30 | ACAGACGAAGGAGCCGCAAAGAAGTAATTAACGGATGAATAATCCCTCAATATAAATATCTCTCACTTATTTAAA |  | 0.133 | 
31 | ACAGACGAAGGAGCCGCAAAGAAGTTATTAAGGGATGAATAATCGCTCAATATAAATACCTCTCACTTATTTAAA | 0.0956 |  | 
32 | CGACATGTCCCGCTTCTTTCATTAATCCGTTATCAACTGTTTTGCTATATACATATACCTTTTAAGAGGAGGAAT |  |  | 0.348
